± gives the standard deviation of the averaged measurements.
Experiment: total protein half-life in vivo (active degradation + dilution); higher = more stable protein
[1] = E. coli NCM3722 delta-clpP delta-lon delta-hslV, growth: N-lim chemostat, doubling time 6 h
[2] = E. coli NCM3722 delta-clpP, growth: N-lim chemostat, doubling time 6 h
[3] = E. coli NCM3722 delta-hslV, growth: N-lim chemostat, doubling time 6 h
[4] = E. coli NCM3722 delta-lon, growth: N-lim chemostat, doubling time 6 h
[5] = E. coli NCM3722 delta-smpB, growth: N-lim chemostat, doubling time 6 h
[6] = wild type E. coli NCM3722, growth: C-lim chemostat, doubling time 3 h
[7] = wild type E. coli NCM3722, growth: C-lim chemostat, doubling time 6 h
[8] = wild type E. coli NCM3722, growth: C-lim chemostat, doubling time 12 h
[9] = wild type E. coli NCM3722, growth: N-lim chemostat, doubling time 6 h
[10] = wild type E. coli NCM3722, growth: N-lim chemostat, doubling time 12 h
[11] = wild type E. coli NCM3722, growth: P-lim chemostat, doubling time 6 h
[12] = wild type E. coli NCM3722, growth: P-lim chemostat, doubling time 12 h

Sequence | total protein half-life in vivo [1] [h] | total protein half-life in vivo [2] [h] | total protein half-life in vivo [3] [h] | total protein half-life in vivo [4] [h] | total protein half-life in vivo [5] [h] | total protein half-life in vivo [6] [h] | total protein half-life in vivo [7] [h] | total protein half-life in vivo [8] [h] | total protein half-life in vivo [9] [h] | total protein half-life in vivo [10] [h] | total protein half-life in vivo [11] [h] | total protein half-life in vivo [12] [h]
MQVSVETTQGLGRRVTITIAADSIETAVKSELVNVAKKVRIDGFRKGKVPMNIVAQRYGASVRQDVLGDLMSRNFIDAIIKEKINPAGAPTYVPGEYKLGEDFTYSVEFEVYPEVELQGLEAIEVEKPIVEVTDADVDGMLDTLRKQQATWKEKDGAVEAEDRVTIDFTGSVDGEEFEGGKASDFVLAMGQGRMIPGFEDGIKGHKAGEEFTIDVTFPEEYHAENLKGKAAKFAINLKKVEERELPELTAEFIKRFGVEDGSVEGLRAEVRKNMERELKSAIRNRVKSQAIEGLVKANDIDVPAALIDSEIDVLRRQAAQRFGGNEKQALELPRELFEEQAKRRVVVGLLLGEVIRTNELKADEERVKGLIEEMASAYEDPKEVIEFYSKNKELMDNMRNVALEEQAVEAVLAKAKVTEKETTFNELMNQQA [P0A850] | 6.11 ± 0.15 | 5.78 ± 0.82 | 5.67 ± 0.022 | 6 ± 0.012 | 4.96 ± 0.061 | 3.12 ± 0.18 | 5.738 ± 0.013 | 10.4 ± 0.89 | 5.35 ± 0.36 | 9.03 ± 0.57 | 5.01 ± 0.23 | 9.5 ± 0.3
MQWQTKLPLIAILRGITPDEALAHVGAVIDAGFDAVEIPLNSPQWEQSIPAIVDAYGDKALIGAGTVLKPEQVDALARMGCQLIVTPNIHSEVIRRAVGYGMTVCPGCATATEAFTALEAGAQALKIFPSSAFGPQYIKALKAVLPSDIAVFAVGGVTPENLAQWIDAGCAGAGLGSDLYRAGQSVERTAQQAAAFVKAYREAVQ [Q6BF16] | 4.76 | – | – | – | – | 2.04 | 3.84 | 8.18 | – | – | – | –
MQYKDENGVNEPSRRRLLKVIGALALAGSCPVAHAQKTQSAPGTLSPDARNEKQPFYGEHQAGILTPQQAAMMLVAFDVLASDKADLERLFRLLTQRFAFLTQGGAAPETPNPRLPPLDSGILGGYIAPDNLTITLSVGHSLFDERFGLAPQMPKKLQKMTRFPNDSLDAALCHGDVLLQICANTQDTVIHALRDIIKHTPDLLSVRWKREGFISDHAARSKGKETPINLLGFKDGTANPDSQNDKLMQKVVWVTADQQEPAWTIGGSYQAVRLIQFRVEFWDRTPLKEQQTIFGRDKQTGAPLGMQHEHDVPDYASDPEGKVIALDSHIRLANPRTAESESSLMLRRGYSYSLGVTNSGQLDMGLLFVCYQHDLEKGFLTVQKRLNGEALEEYVKPIGGGYFFALPGVKDANDYFGSALLRV | – | 5.58 | – | – | 5.85 | 2.17 ± 0.16 | 4.4 | 7.71 | – | – | – | –
MQYNPLGKTDLRVSRLCLGCMTFGEPDRGNHAWTLPEESSRPIIKRALEGGINFFDTANSYSDGSSEEIVGRALRDFARREDVVVATKVFHRVGDLPEGLSRAQILRSIDDSLRRLGMDYVDILQIHRWDYNTPIEETLEALNDVVKAGKARYIGASSMHASQFAQALELQKQHGWAQFVSMQDHYNLIYREEEREMLPLCYQEGVAVIPWSPLARGRLTRPWGETTARLVSDEVGKNLYKESDENDAQIAERLTGVSEELGATRAQVALAWLLSKPGIAAPIIGTSREEQLDELLNAVDITLKPEQIAELETPYKPHPVVGFK | 4.533 ± 0.045 | 4.47 ± 0.65 | 4.55 ± 0.91 | 5 ± 0.2 | 3.79 ± 0.081 | 2.81 ± 0.13 | 5.04 ± 0.076 | 9.04 ± 0.38 | 4.21 ± 0.2 | 6.51 ± 0.4 | 4.28 ± 0.23 | 8.83 ± 0.12
MREAFICDGIRTPIGRYGGALSSVRADDLAAIPLRELLVRNPRLDAECIDDVILGCANQAGEDNRNVARMATLLAGLPQSVSGTTINRLCGSGLDALGFAARAIKAGDGDLLIAGGVESMSRAPFVMGKAASAFSRQAEMFDTTIGWRFVNPLMAQQFGTDSMPETAENVAELLKISREDQDSFALRSQQRTAKAQSSGILAEEIVPVVLKNKKGVVTEIQHDEHLRPETTLEQLRGLKAPFRANGVITAGNASGVNDGAAALIIASEQMAAAQGLTPRARIVAMATAGVEPRLMGLGPVPATRRVLERAGLSIHDMDVIELNEAFAAQALGVLRELGLPDDAPHVNPNGGAIALGHPLGMSGARLALAASHELHRRNGRYALCTMCIGVGQGIAMILERV [P0C7L2] | 3.42 | – | – | 2.17 | – | 2.77 ± 0.17 | 3.37 ± 0.079 | 4.76 ± 0.58 | – | – | 4.99 ± 1.1 | 8.63 ± 0.14
MRFAIVVTGPAYGTQQASSAFQFAQALIADGHELSSVFFYREGVYNANQLTSPASDEFDLVRAWQQLNAQHGVALNICVAAALRRGVVDETEAGRLGLASSNLQQGFTLSGLGALAEASLTCDRVVQF | 5.11 | 4.58 | – | – | 3.44 | – | – | – | 4.52 | – | 6.11 | > 16
MRFIIRTVMLIALVWIGLLLSGYGVLIGSKENAAGLGLQCTYLTARGTSTVQYLHTKSGFLGITDCPLLRKSNIVVDNG [Q2MB16] | 7.32 ± 0.77 | 6.25 | – | – | 6.03 ± 1.1 | – | – | 14 ± 1.4 | 5.45 | – | – | 14 ± 2.2
MRFYRPLGRISALTFDLDDTLYDNRPVILRTEREALTFVQNYHPALRSFQNEDLQRLRQAVREAEPEIYHDVTRWRFRSIEQAMLDAGLSAEEASAGAHAAMINFAKWRSRIDVPQQTHDTLKQLAKKWPLVAITNGNAQPELFGLGDYFEFVLRAGPHGRSKPFSDMYFLAAEKLNVPIGEILHVGDDLTTDVGGAIRSGMQACWIRPENGDLMQTWDSRLLPHLEISRLASLTSLI [P0ADP0] | 5.24 ± 0.7 | 4.56 ± 0.69 | 3.79 ± 0.05 | 4.87 ± 0.35 | 3.76 ± 0.16 | – | 5.75 ± 0.33 | 10.1 ± 1.4 | 3.83 ± 0.34 | 6.7 | 5.87 ± 0.57 | 11.6 ± 0.078
MRGEFYQQLTNDLETARAEGLFKEERIITSAQQADITVADGSHVINFCANNYLGLANHPDLIAAAKAGMDSHGFGMASVRFICGTQDSHKELEQKLAAFLGMEDAILYSSCFDANGGLFETLLGAEDAIISDALNHASIIDGVRLCKAKRYRYANNDMQELEARLKEAREAGARHVLIATDGVFSMDGVIANLKGVCDLADKYDALVMVDDSHAVGFVGENGRGSHEYCDVMGRVDIITGTLGKALGGASGGYTAARKEVVEWLRQRSRPYLFSNSLAPAIVAASIKVLEMVEAGSELRDRLWANARQFREQMSAAGFTLAGADHAIIPVMLGDAVVAQKFARELQKEGIYVTGFFYPVVPKGQARIRTQMSAAHTPEQITRAVEAFTRIGKQLGVIA [P0AB77] | 5.66 ± 1.2 | 4.59 ± 0.16 | 4.78 ± 0.57 | 4.56 ± 0.44 | 4.39 ± 0.082 | 3.46 ± 0.59 | 5.66 ± 0.2 | – | 4.55 ± 0.25 | 6.84 ± 0.5 | 6.03 ± 0.29 | 11.11 ± 0.03

Source: the supplement of paper PMC11246515
